Results taken from patent publication US20050043236A1 (published 2005).
Like-named read-outs stand apart in the source and are kept apart here.

Experiments:
[1] = target: T1, human VEGF165 (human, UniProt P15692-4 27-191); assay: affinity determination for human VEGF-165 (method not named in Example 7)
T1 construct: also called hVEGF165

[2] = target: T1, human VEGF165; assay: affinity determination for human VEGF-165 (method not named in Example 7); second row for SEQ ID NO: 26
[3] = target: T1, human VEGF165; assay: half-life of dissociation of the trap-hVEGF165 complex, as described in WO/0075319
[4] = target: T1, human VEGF165; assay: kinetic dissociation from hVEGF165, as described in WO/0075319
[5] = target: T1, human VEGF165

T1 sequence (P15692 other isoform, or with tags, fused parts or gaps limits assumed): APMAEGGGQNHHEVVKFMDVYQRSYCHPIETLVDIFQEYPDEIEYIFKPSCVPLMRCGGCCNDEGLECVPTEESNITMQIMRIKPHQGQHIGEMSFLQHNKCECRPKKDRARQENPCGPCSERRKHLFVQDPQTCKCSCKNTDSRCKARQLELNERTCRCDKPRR

B1: VEGF mini-trap of SEQ ID NO:26 (receptor)
chain: SDTGRPFVEMYSEIPEIIHMTEGRELVIPCRVTSPNITVTLKKFPLDTLIPDGKRIIWDSRKGFIISNATYKEIGLLTCEATVNGHLYKTNYLTHRQTNTIIDVVLSPSHGIELSVGEKLVLNCTARTELNVGIDFNWEYPSSKHQHKKLVNRDLKTQSGSEMKKFLSTLTIDGVTRSDQGLYTCAASSGLMTKKNSTFVRVHEKDKTHTCPPC
notes: Secreted from CHO K1 cells; Covalent dimer of about 64 kDa
[1]
  Kd: 0.328 pM
  koff: 6.56e-06 s⁻¹
  kon: 2e+07 M⁻¹ s⁻¹
[2]
  Kd: 0.221 pM
  koff: 5.77e-06 s⁻¹
  kon: 2.61e+07 M⁻¹ s⁻¹

B2: uncleaved VEGF trap containing a thrombin cleavage site (Fc fusion)
chain: SDTGRPFVEMYSEIPEIIHMTEGRELVIPCRVTSPNITVTLKKFPLDTLIPDGKRIIWDSRKGFIISNATYKEIGLLTCEATVNGHLYKTNYLTHRQTNTIIDVVLSPSHGIELSVGEKLVLNCTARTELNVGIDFNWEYPSSKHQHKKLVNRDLKTQSGSEMKKFLSTLTIDGVTRSDQGLYTCAASSGLMTKKNSTFVRVHEKDKTHTCPPCLVPRGSPAPELLGGPSVFLFPPKPKDTLMISRTPEVTCVVVDVSHEDPEVKFNWYVDGVEVHNAKTKPREEQYNSTYRVVSVLTVLHQDWLNGKEYKCKVSNKALPAPIEKTISKAKGQPREPQVYTLPPSRDELTKNQVSLTCLVKGFYPSDIAVEWESNGQPENNYKTTPPVLDSDGSFFLYSKLTVDKSRWQQGNVFSCSVMHEALHNHYTQKSLSLSPGK
[3]
  T1/2: 3.9 h
[4]
  koff: 4.93e-05 s⁻¹

B3: cleaved VEGF mini-trap (receptor)
chain: SDTGRPFVEMYSEIPEIIHMTEGRELVIPCRVTSPNITVTLKKFPLDTLIPDGKRIIWDSRKGFIISNATYKEIGLLTCEATVNGHLYKTNYLTHRQTNTIIDVVLSPSHGIELSVGEKLVLNCTARTELNVGIDFNWEYPSSKHQHKKLVNRDLKTQSGSEMKKFLSTLTIDGVTRSDQGLYTCAASSGLMTKKNSTFVRVHEKDKTHTCPPCLVPRGS
notes: Product of thrombin digestion of the uncleaved VEGF trap; also called thrombin-cleaved dimeric VEGF mini-trap; truncated trap
[3]
  T1/2: 3.53 h
[4]
  koff: 5.46e-05 s⁻¹

B4: recombinant monomeric R1R2-myc myc his (receptor)
chain: SDTGRPFVEMYSEIPEIIHMTEGRELVIPCRVTSPNITVTLKKFPLDTLIPDGKRIIWDSRKGFIISNATYKEIGLLTCEATVNGHLYKTNYLTHRQTNTIIDVVLSPSHGIELSVGEKLVLNCTARTELNVGIDFNWEYPSSKHQHKKLVNRDLKTQSGSEMKKFLSTLTIDGVTRSDQGLYTCAASSGLMTKKNSTFVRVHEK
modifications: C-terminal myc-myc-his tag is not in the letters.
notes: Monomer; The construct is named only, not described; also called R1R2-myc myc his monomer; not shown: myc-myc-his tag and any linker to it
[3]
  T1/2: 0.028 h
[4]
  koff: 0.00674 s⁻¹
[5]
  Kd: ~1000 pM
